# Test results from patent publication US20230220346A1, “BIOLOGICALLY SYNTHESIZED HYDROXYAPATITE FOR BONE REGENERATION AND TISSUE ENGINEERING” (BIOVENTURES, LLC, priority 2019, published 2023).
# B1: ALPL: Recombinant human tissue-nonspecific alkaline phosphatase (R&D Systems) (protein, listed as Homo sapiens)
# chain: MISPFLVLAIGTCLTNSLVPEKEKDPKYWRDQAQETLKYALELQKLNTNVAKNVIMFLGDGMGVSTVTAARILKGQLHHNPGEETRLEMDKFPFVALSKTYNTNAQVPDSAGTATAYLCGVKANEGTVGVSAATERSRCNTTQGNEVTSILRWAKDAGKSVGIVTTTRVNHATPSAAYAHSADRDWYSDNEMPPEALSQGCKDIAYQLMHNIRDIDVIMGGGRKYMYPKNKTDVEYESDEKARGTRLDGLDLVDTWKSFKPRYKHSHFIWNRTELLTLDPHNVDYLLGLFEPGDMQYELNRNNVTDPSLSEMVVVAIQILRKNPKGFFLLVEGGRIDHGHHEGKAKQALHEAVEMDRAIGQAGSLTSSEDTLTVVTADHSHVFTFGGYTPRGNSIFGLAPMLSDTDKKPFTAILYGNGPGYKVVGGERENVSMVDYAHNNYQAQSAVPLRHETHGGEDVAVFSKGPMAHLLHGVHEQNYVPHVMAYAACIGANLGHCAPASSAGSLAAGPLLLALALYPLSVLF
# modifications: (1)..(524) Human tissue nonspecific alkaline phosphatase (ALPL)
# B2: SAP: shrimp hepatopancreas alkaline phosphatase (protein, listed as Pandalus borealis)
# chain: MIGRTTFIALFVKVLTIWSFTKGEDCVWDNDVDYPEYPPLILDSSFQLVLPVLEGDQRITSVQSGSELILACPGREISALGSEDAQATCLGGKLVEVDGKEWNIVELGCTKMASETIHRNLGQCGDQDLGIYEVIGFDLPTTGHFYELIRVCFDPANETTIFSENIVHGASIAAKDIDPGRPSFKTSTGFFSVSMISVYSQRNQLELMKNLLGDDELAATIIDPSKQFYFAKGHMAPDADFVTVVEQDATYYYINALPQWQAFNNGNWKYLEYDTRDLAEKHGTDLTVYSGGWGVLELEDINGNPVEIYLGLAQDKKVVPAPALTWKVIYEKDTNRAAAIVGINNPHITTAPEPLCTDICSSLTWLDFDFGDLVHGYTYCCSVADLRAAIPNVPDLGDVDILDE
# modifications: (1)..(404) Shrimp alkaline phosphatase (rSAP)
# B3: CIP: calf intestinal alkaline phosphatase (protein, listed as Bos taurus)
# chain: MQGACVLLLLGLHLQLSLGLVPVEEEDPAFWNRQAAQALDVAKKLQPIQTAAKNVILFLGDGMGVPTVTATRILKGQMNGKLGPETPLAMDQFPYVALSKTYNVDRQVPDSAGTATAYLCGVKGNYRTIGVSAAARYNQCKTTRGNEVTSVMNRAKKAGKSVGVVTTTRVQHASPAGAYAHTVNRNWYSDADLPADAQMNGCQDIAAQLVNNMDIDVILGGGRKYMFPVGTPDPEYPDDASVNGVRKRKQNLVQAWQAKHQGAQYVWNRTALLQAADDSSVTHLMGLFEPADMKYNVQQDHTKDPTLQEMTEVALRVVSRNPRGFYLFVEGGRIDHGHHDDKAYMALTEAGMFDNAIAKANELTSELDTLILVTADHSHVFSFGGYTLRGTSIFGLAPSKALDSKSYTSILYGNGPGYALGGGSRPDVNDSTSEDPSYQQQAAVPQASETHGGEDVAVFARGPQAHLVHGVEEETFVAHIMAFAGCVEPYTDCNLPAPTTATSIPDAAHLAASPPPLALLAGAMLLLLAPTLY
# modifications: (1)..(533) Bovine intestine alkaline phosphatase (CIP)
# Assays:
# [1] = system: MG-63 cell line; assay: Alizarin Red S (ARS) biomineralization assay in MG-63; assay type: cell-based, human; details: MEMα/10% FBS with βGP (2 mM) plus the ALP (1 U/mL), 7 days
# Experimental: (§1) Biomineralization assays and Alizarin Red S staining: All human and mouse cell lines and human peripheral blood mononuclear cells (MNCs) were maintained in MEMα/10% FBS with penicillin/streptomycin and glutamine in a 37° C. humidified incubator with 5% CO2. […] The medium was replaced after 4 days. Alizarin Red S staining was performed at room temperature by removing the culture medium, washing the cells twice with 1×PBS (pH 7.4), fixing the cells in 10% neutral buffered formalin (Richard-Allan Scientific, Kalamazoo, Mich., USA) for 30 min, rinsing twice with Milli-Q water, staining with Alizarin Red S for 30 min, and destaining twice in Milli-Q water. A ZEISS inverted fluorescence/brightfield microscope equipped with an Infinity 3 digital camera and software system was used for imaging.
# [2] = system: Saos-2 cell line; assay: Alizarin Red S (ARS) biomineralization assay in Saos-2; assay type: cell-based, human; details: MEMα/10% FBS with βGP (2 mM) plus the ALP (1 U/mL), 7 days
# Experimental: as §1
# [3] = system: human blood mononuclear cells (MNCs); assay: Alizarin Red S biomineralization assay in human blood mononuclear cells; assay type: cell-based; details: MEMα/10% FBS with αGP alone or CIP alone (the other missing), 7 days
# Experimental: as §1
# Coating cell culture plate with Collagen Type I, rat tail for mineralization assays: To coat a 48-well plate with Collagen Type I at 5 μg/cm^2, the stock solution was diluted to 25 μg/mL in 17.5 mM of acetic acid and aliquoted […] into each well. After incubating at room temperature for one hour, the Collagen Type I solution was removed. Each well was rinsed with 1×PBS (pH 7.4) and air-dried at room temperature. Human blood MNCs were suspended in the conditioned media and distributed into each well (1×10^5 cell/well) prior to a 7-day incubation. […]
# [4] = system: MG-63 and Saos-2 cell lines; assay: Alizarin Red S biomineralization assay: phosphate source comparison, titration, ascorbic acid (FIG. 1A, 1C, 1E-G); assay type: cell-based, human; details: FIG. 1E-G
# Experimental: as §1
Molecule,biomineralization (Alizarin Red S staining) [1],biomineralization (Alizarin Red S staining) [2],biomineralization (Alizarin Red S staining) [3],dose dependence of biomineralization (titration assays) [4]
B1,biomineralization was observed,biomineralization was observed,,
B2,mineralized,mineralized,,
B3,mineralized,mineralized,did not occur,depended on the doses
